From patent US20090252748A1 (Biogen, published 2009)

Assays:
[1] = target: T1, Ig region of Sp35 (Homo sapiens (Human), UniProt Q96FE5 425-499); test: ELISA
T1 sequence: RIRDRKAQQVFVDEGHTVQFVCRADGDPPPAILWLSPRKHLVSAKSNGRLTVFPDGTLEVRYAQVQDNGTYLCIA
Description: Ovalbumin and BSA were used as controls. […] The affinity of these latter antibodies for mouse and rat Sp35 was restored to the level seen using human Sp35 when amino acid 419 of the mouse or rat Sp35 is changed from histidine (H) to arginine (R). Arginine is the amino acid at position 419 in human Sp35. […] AP substrate was then developed by 10 mg/ml 4 NPP in 0.1 M Glycine, 1 mM MgCl₂, 1 mM ZnCl₂, pH 10.5, and read at O.D. 405.
In similar experiments, monoclonal antibodies 3B5.2 and 7P1D5.1G9, as well as the Fab fragment of the 7P1D5.1G9 antibody were tested in ELISA assays for their ability to bind human Sp35, the entire LRR region of Sp35, the Ig region of Sp35 and murine Sp35. […] The 3B5.2 and 7P1D5. 1G9 monoclonal antibodies also bound the LRR region of Sp35.

[2] = target: T2, human Sp35 protein expressed on transfected cells (human, UniProt Q96FE5 40-620); test: FACS direct binding, CHO cells stably transfected with human Sp35 (LINGO-1), mean fluorescence (MCF) against antibody concentration [panel Human]
T2 construct: also called huSp35; hLINGO-1
T2 sequence: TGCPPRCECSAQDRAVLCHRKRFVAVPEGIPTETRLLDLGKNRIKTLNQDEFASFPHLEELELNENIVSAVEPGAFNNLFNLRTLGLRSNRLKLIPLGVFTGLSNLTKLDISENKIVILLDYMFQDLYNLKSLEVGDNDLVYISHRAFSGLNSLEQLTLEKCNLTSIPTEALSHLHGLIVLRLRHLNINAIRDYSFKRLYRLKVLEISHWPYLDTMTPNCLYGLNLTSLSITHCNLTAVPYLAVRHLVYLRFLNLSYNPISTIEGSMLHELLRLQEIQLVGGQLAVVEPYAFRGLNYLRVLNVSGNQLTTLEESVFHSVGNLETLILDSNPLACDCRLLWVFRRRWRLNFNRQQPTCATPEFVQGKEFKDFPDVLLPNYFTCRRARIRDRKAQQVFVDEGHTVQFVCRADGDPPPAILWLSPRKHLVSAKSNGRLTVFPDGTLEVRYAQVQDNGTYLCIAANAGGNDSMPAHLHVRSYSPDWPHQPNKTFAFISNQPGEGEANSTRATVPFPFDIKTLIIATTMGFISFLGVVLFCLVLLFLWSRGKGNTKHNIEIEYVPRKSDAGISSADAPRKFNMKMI
Description: (§1) In similar experiments, CHO cells stably transfected with Sp35 were used in FACS analysis to further characterize the binding properties of 3B5.2 and 7P1D5.1G9. […] Specifically, the 3B5.2 and 7P1D5.1G9 antibodies were tested for their ability to bind CHO cells transfected with, and expressing, human or murine Sp35. […] Additionally, the 3B5.2 antibody bound more cells as measured by the mean fluorescence (MCF) than 7P1D5.1G9.

[3] = target: T3, mouse Sp35 protein expressed on transfected cells (mouse, UniProt Q9D1T0 36-614); test: FACS direct binding, CHO cells stably transfected with murine Sp35 (LINGO-1), mean fluorescence (MCF) against antibody concentration [panel Murine]
T3 construct: whole, on cells; also called mSp35; mLINGO-1
T3 sequence (looked up): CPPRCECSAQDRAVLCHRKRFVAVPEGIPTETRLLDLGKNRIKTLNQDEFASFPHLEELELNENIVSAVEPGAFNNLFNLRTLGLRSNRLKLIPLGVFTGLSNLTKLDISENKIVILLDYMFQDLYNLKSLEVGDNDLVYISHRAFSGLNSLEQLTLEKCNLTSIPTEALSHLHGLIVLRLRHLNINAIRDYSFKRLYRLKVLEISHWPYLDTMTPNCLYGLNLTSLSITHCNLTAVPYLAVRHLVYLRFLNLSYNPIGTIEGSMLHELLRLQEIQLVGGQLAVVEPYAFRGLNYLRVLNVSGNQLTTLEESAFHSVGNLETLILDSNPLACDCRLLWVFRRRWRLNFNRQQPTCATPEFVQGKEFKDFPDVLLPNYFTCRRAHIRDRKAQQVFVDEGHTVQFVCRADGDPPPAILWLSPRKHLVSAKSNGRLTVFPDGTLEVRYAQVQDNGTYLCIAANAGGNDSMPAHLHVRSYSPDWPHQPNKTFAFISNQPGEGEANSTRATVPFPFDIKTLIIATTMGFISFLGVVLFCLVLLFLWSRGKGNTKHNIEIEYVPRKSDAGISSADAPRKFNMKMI
Description: as §1

[4] = target: T4, AP-Sp35 (418-498) (Homo sapiens (Human), UniProt Q96FE5 424-504); test: fragment binding
T4 sequence: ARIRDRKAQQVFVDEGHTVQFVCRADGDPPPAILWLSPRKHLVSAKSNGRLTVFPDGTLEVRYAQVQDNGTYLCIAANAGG

[5] = target: T5, Sp35 fragment 417-498 human Fc (human, UniProt Q96FE5 423-504); test: fragment binding
T5 construct: not shown: Fc, printed 'human Fc'
T5 sequence: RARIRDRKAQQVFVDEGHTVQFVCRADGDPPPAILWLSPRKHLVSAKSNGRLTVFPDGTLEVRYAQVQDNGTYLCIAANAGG

B1: 3B5.2 monoclonal antibody (ATCC PTA-8106) (antibody, mouse IgG1, V domains shown)
VH: QVQLQQPGAELVRPGTSVKLSCRASGYTFTSYWMHWVKQRPGQGLEWIGVIDPSDSYTNYNQKFRGKATLTVDTSSSTAYMQLSSLTSEDSAVYYCARPYYGSHWFFDVWGTGTTVTVSS
VL: QIVLTQSPAIMSASPGEKVTMTCSASSRVSYVHWYQQKSGTSPKRWLYDTSNLASGVPARFGGNGSGTSYSLTISSMEAEDAATYYCQQWSTNPPTFGGGTKLEIK
modifications: N-linked glycosylation site in FR3 (appears glycosylated)
notes: murine IgG1/kappa; also called 2.P3B5.2
binding result [1]: no binding
EC50 (read off the curve) [2]: ~0.4 nM
EC50 (read off the curve) [3]: ~0.4 nM

B2: D06 (full-length antibody with the Li06 variable region) (antibody, V domains shown)
VH: EVQLLESGGGLVQPGGSLRLSCAASGFTFSEYPMDWVRQAPGKGLEWVSSIYSSGGSTVYADSIKGRFTISRDNSKNTLYLQMNSLRAEDTAVYYCAREGDSDAFDIWGQGTMVTVSS
VL: DIQMTQSPSTLSASVGDRVTITCRASQSISSWLAWYQQKPGKAPNLLIYAASSLRTGVPSRFRGSGSGTDFTLTISSLQPEDFATYYCLQDYSYPLTFGQGTKLEIK
notes: also called 34-F02 (Dli06) Ab
binding result [4]: no binding

B3: D13 (full-length antibody with the Li13 variable region) (antibody, V domains shown)
VH: EVQLLESGGGLVQPGGSLRLSCAASGFTFSHYEMYWVRQAPGKGLEWVSRIVSSGGFTKYADSVKGRFTISRDNSKNTLYLQMNSLRAEDTAVYYCATEGDNDAFDIWGQGTTVTVSS
VL: DIQMTQSPATLSLSPGERATLSCRASQSVSSYLAWYQQKPGQAPRLLIYDASNRATGIPARFSGSGSGTDFTLTISSLEPEDFAVYYCQQRSNWPMYTFGQGTKLEIK
notes: also called 72-D03 (Dli13) Ab
binding result [5]: no binding
